From patent US20230212319A1, “NOVEL ANTIGEN BINDING DOMAINS AND SYNTHETIC ANTIGEN RECEPTORS INCORPORATING THE SAME” (University of Southern California, priority 2020, published 2023)

Assays:
[1] = tested on: Daudi cells expressing luciferase; test: Daudi-luciferase i.p. model in NSG mice, CD16 SAR-T plus rituximab; assay type: in vivo; conditions: rituximab plus 1 × 10^7 SAR-T cells, IL-2, NSG mice
Method: Use of universal SAR-T cells expressing CD16 as the antigen binding domain. Daudi cells expressing luciferase are injected intraperitoneally (i.p.; 0.3 × 10^6 cells/mouse) in NSG mice (Jackson Laboratory). Some mice receive rituximab ([…]) i.p. Human T cells (1 × 10^7) expressing CD8SP-hu-mROO5-1-vL-[hTCRb-S57C]-F-P2A-IgSP-Apa-CD16-V158-v2-G4Sx3v2-hu-mROO5-1-vH-[hTCRa-T48C] (SEQ ID NO: 4725) SAR are injected four days after Daudi inoculation. Control mice receive tissue culture medium instead of rituximab or T cells. Rituximab injection is repeated weekly for 4 weeks, with no further T lymphocyte injection. All mice receive intraperitoneal injections of 1,000-2,000 IU of IL-2 twice a week for 4 weeks.

L363 (BCMA+) cells = assay type: cell-based
RAJI cells [2] = test: JNG (Jurkat NFAT-GFP) cells expressing SAR: GFP induction on co-culture with RAJI
MCF7 cells = assay type: cell-based
RAJI-CD19-KO cells = test: JNG assay, co-culture with RAJI-CD19-KO cells; assay type: cell-based; conditions: co-culture with Raji-CD19-KO
How it was run: (§1)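 Read-out is NFAT-driven GFP measured by flow cytometry after ~4–18 h co-culture of SAR-expressing JNG cells with target cells (E:T about 1:2). SARs were introduced by lentiviral spinfection and selected with puromycin or blasticidin when possible; scores (+/- to 5+ ≈ 5–50% GFP+) are relative to parental JNG cells.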

RAJI cells [3] = test: JNG assay, co-culture with RAJI cells; assay type: cell-based; conditions: JNG cells expressing construct, co-culture with Raji
How it was run: as §1

L363 cells = test: JNG assay, co-culture with L363 cells; assay type: cell-based; conditions: co-culture with L363
How it was run: as §1

L363-CD38-KO = test: JNG NFAT-GFP assay, co-culture with L363-CD38-KO cells; assay type: cell-based
RS;411 = test: JNG assay, co-culture with RS;411 cells; assay type: cell-based; conditions: co-culture with RS411
How it was run: as §1

B1: 4725 (protein)
chain: MALPVTALLLPLALLLHAARPDIQMTQSPSSLSASVGDRVTITCKASDHINNWLAWYQQKPGQAPKLLIYGATTLETGVPSRFSGSGSGTDYTLTISSLQPEDFATYYCQQSWNTPWTFGQGTKLEIKRLEDLKNVFPPEVAVFEPSEAEISHTQKATLVCLATGFYPDHVELSWWVNGKEVHSGVCTDPQPLKEQPALNDSRYCLSSRLRVSATFWQNPRNHFRCQVQFYGLSENDEWTQDRAKPVTQIVSAEAWGRADCGFTSESYQQGVLSATILYEILLGKATLYAVLVSALVLMAMVKRKDSRGRAKRSGSGATNFSLLKQAGDVEENPGPTSMDWIWRILFLVGAATGAHSGPQVQLQESGGGLAQAGGSLRLSCAASGRTFSMGWFRQAPGKEREFVAAITYSGGSPYYASSVRGRFTISRDNAKNTVYLQMNSLKPEDTAVYYCAANPTYGSDWNAENWGQGTQVTVSSGSGGGGSGGGGSGGGGSFEQVQLQQPGAELVKPGASVKMSCKASGYAFSSYWINWMKQKPGQGLEWIGQIYPGDGDTNYNGKFKGRATLTADTSSSTAYMQLSSLTSEDSAVYFCARSITTVVGCAMDYWGQGTSVTVSSTRIQNPDPAVYQLRDSKSSDKSVCLFTDFDSQTNVSQSKDSDVYITDKCVLDMRSMDFKSNSAVAWSNKSDFACANAFNNSIIPEDTFFPSPESSCDVKLVEKSFETDTNLNFQNLSVIGFRILLLKVAGFNLLMTLRLWSSRAKRSGSGVKQTLNFDLLKLAGDVESNPGPSRGHMTEYKPTVRLATRDDVPRAVRTLAAAFADYPATRHTVDPDRHIERVTELQELFLTRVGLDIGKVWVADDGAAVAVWTTPESVEAGAVFAEIGPRMAELSGSRLAAQQQMEGLLAPHRPKEPAWFLATVGVSPDHQGKGLGSAVVLPGVEAAERAGVPAFLETSAPRNLPFYERLGFTVTADVEVPEGPRTWCMTRKPGA
modifications: Synthetic Polynucloetide
- tumor growth, Daudi-luciferase i.p. [1]: reduced tumor growth

B2: 6821 (protein)
chain: MALPVTALLLPLALLLHAARPQLQLQESGPGLVKPSETLSLTCTVSGDSISSGDYYWGWIRQPPGKGLEWIGHIYYSGVTYYNPSLKSRVTISVDTSRNQFSLKLSSVTAADTAVYYCTREDSSNWRSRGQGTLVTVSSLEGQPKANPTVTLFPPSSEELQANKATLVCLISDFYPGAVTVAWKADGSPVKAGVETTKPSKQSNNKYAASSYLSLTPEQWKSHRSYSCQVTHEGSTVEKTVAPTECSPIKTDVITMDPKDNCSKDANDTLLLQLTNTSAYYMYLLLLLKSVVYFAIITCCLLRRTAFCCNGEKSRAKRSGSGATNFSLLKQAGDVEENPGPTSMDWIWRILFLVGAATGAHSFEVQLLESGGGLIQPGGSLRLSCAASGFTFSSHAMTWVRQAPGKGLEWVSAISGSGDYTHYADSVKGRFTISRDNSKNTVYLQMNSLRAEDSAVYYCAKDEDGGSLLGHRGQGTLVTVSSTRASTKGPSVFPLAPSSKSTSGGTAALGCLVKDYFPEPVTVSWNSGALTSGVHTFPAVLQSSGLYSLSSVVTVPSSSLGTQTYICNVNHKPSNTKVDKRVEPKSCEVKTDSTDHVKPKETENTKQPSKSCHKPKAIVHTEKVNMMSLTVLGLRMLFAKTVAVNFLLTAKLFFLRAKRSGSGVKQTLNFDLLKLAGDVESNPGPSRGHMTEYKPTVRLATRDDVPRAVRTLAAAFADYPATRHTVDPDRHIERVTELQELFLTRVGLDIGKVWVADDGAAVAVWTTPESVEAGAVFAEIGPRMAELSGSRLAAQQQMEGLLAPHRPKEPAWFLATVGVSPDHQGKGLGSAVVLPGVEAAERAGVPAFLETSAPRNLPFYERLGFTVTADVEVPEGPRTWCMTRKPGA
modifications: Synthetic Polynucloetide
- GFP expression on co-culture with L363 (BCMA+) (L363 (BCMA+) cells): strongly induced GFP expression
- GFP expression on co-culture with RAJI (RAJI cells [2]): strongly induced GFP expression

B3: 21873 (protein)
chain: MALPVTALLLPLALLLHAARPDIQMTQSPSSLSASVGDRVTITCRASQDISSYLNWYQQKPGKAPKLLIYYTSRLHSGVPSRFSGSGSGTDFTLTISSLQPEDFATYYCQQGNTLPYTFGQGTKVEIKRLEDLKNVFPPEVAVFEPSEAEISHTQKATLVCLATGFYPDHVELSWWVNGKEVHSGVCTDPQPLKEQPALNDSRYCLSSRLRVSATFWQNPRNHFRCQVQFYGLSENDEWTQDRAKPVTQIVSAEAWGRADCGFTSESYQQGVLSATILYEILLGKATLYAVLVSALVLMAMVKRKDSRGRAKRSGSGATNFSLLKQAGDVEENPGPTSMDWIWRILFLVGAATGAHSFEVQLVESGGGLVQPGGSLRLSCAASGYTFSDYFMSWVRQAPGKGLEWVATISNGGTYTYYPDSVKGRFTISRDNSKNTLYLQMNSLRAEDTAVYYCARFDGYIFDYWGQGTLVTVSSTRIQNPDPAVYQLRDSKSSDKSVCLFTDFDSQTNVSQSKDSDVYITDKCVLDMRSMDFKSNSAVAWSNKSDFACANAFNNSIIPEDTFFPSPESSCDVKLVEKSFETDTNLNFQNLSVIGFRILLLKVAGFNLLMTLRLWSSRAKRSGSGVKQTLNFDLLKLAGDVESNPGPSRGHMTEYKPTVRLATRDDVPRAVRTLAAAFADYPATRHTVDPDRHIERVTELQELFLTRVGLDIGKVWVADDGAAVAVWTTPESVEAGAVFAEIGPRMAELSGSRLAAQQQMEGLLAPHRPKEPAWFLATVGVSPDHQGKGLGSAVVLPGVEAAERAGVPAFLETSAPRNLPFYERLGFTVTADVEVPEGPRTWCMTRKPGA
- NFAT-GFP ASSAY: MCF-7 (MCF7 cells): did not show GFP induction

B4: 22128 (protein)
chain: MALPVTALLLPLALLLHAARPQVQLVESGGGLVQPGGSLRLSCAASGFTFTNHAMSWVRQAPGKGLELVSSISGNGRTTYYADSVKGRFTISRDISKNTLDLQMNSLRAEDTAVYYCAKDGGETLVDSRGQGTLVTVSSLEGGGGSGGGGSIEGGGGSGGGGSKVQLLESGGGLVQPGGSLRLSCAASGFIFSSYAMSWVRQAPGKGQEWVSGVSGTGVNTYYADSVKGRFTISRDNSKNTLYLQMNSLRAEDTAVYYCASGKGWDSGSWYEDYRGQGTLVTVSSGTGGGGSGGGGSGGGGSEFDIQMTQSPSSLSASVGDRVTITCKASDHINNWLAWYQQKPGQAPKLLIYGATTLETGVPSRFSGSGSGTDYTLTISSLQPEDFATYYCQQSWNTPWTFGQGTKLEIKRLEDLKNVFPPEVAVFEPSEAEISHTQKATLVCLATGFYPDHVELSWWVNGKEVHSGVCTDPQPLKEQPALNDSRYCLSSRLRVSATFWQNPRNHFRCQVQFYGLSENDEWTQDRAKPVTQIVSAEAWGRADCGFTSESYQQGVLSATILYEILLGKATLYAVLVSALVLMAMVKRKDSRGRAKRSGSGATNFSLLKQAGDVEENPGPTSMDWIWRILFLVGAATGAHSFEQVQLQQPGAELVKPGASVKMSCKASGYAFSSYWINWMKQKPGQGLEWIGQIYPGDGDTNYNGKFKGRATLTADTSSSTAYMQLSSLTSEDSAVYFCARSITTVVGCAMDYWGQGTSVTVSSTRIQNPDPAVYQLRDSKSSDKSVCLFTDFDSQTNVSQSKDSDVYITDKCVLDMRSMDFKSNSAVAWSNKSDFACANAFNNSIIPEDTFFPSPESSCDVKLVEKSFETDTNLNFQNLSVIGFRILLLKVAGFNLLMTLRLWSSRAKRSGSGVKQTLNFDLLKLAGDVESNPGPSRAHMTEYKPTVRLATRDDVPRAVRTLAAAFADYPATRHTVDPDRHIERVTELQELFLTRVGLDIGKVWVADDGAAVAVWTTPESVEAGAVFAEIGPRMAELSGSRLAAQQQMEGLLAPHRPKEPAWFLATVGVSPDHQGKGLGSAVVLPGVEAAERAGVPAFLETSAPRNLPFYERLGFTVTADVEVPEGPRTWCMTRKPGA
- NFAT-GFP ASSAY: Raji-CD19-KO (RAJI-CD19-KO cells): 2+ (refer to approximately 5%, 10%, 20%, 30%, 40% and 50% GFP positive cells)
- NFAT-GFP ASSAY: Raji (RAJI cells [3]): 3+ (refer to approximately 5%, 10%, 20%, 30%, 40% and 50% GFP positive cells)
- NFAT-GFP ASSAY: L363 (L363 cells): 2+ (refer to approximately 5%, 10%, 20%, 30%, 40% and 50% GFP positive cells)
- NFAT-GFP ASSAY: L363-CD38-KO (L363-CD38-KO): 2+ (refer to approximately 5%, 10%, 20%, 30%, 40% and 50% GFP positive cells)
- NFAT-GFP ASSAY: RS411 (RS;411): 2+ (refer to approximately 5%, 10%, 20%, 30%, 40% and 50% GFP positive cells)
